Laboratory results reported in paper PMC8497992, “Structural and functional characterization explains loss of dNTPase activity of the cancer-specific R366C/H mutant SAMHD1 proteins” (The Journal of Biological Chemistry, 2021).

Target: the molecule itself
Assay: crystal structure; HD domain (113-626) H206R/D207N constructs, 4 mg/ml, with 4 mM dGTP; microbatch under oil; 100 mM succinic acid-phosphate-glycine buffer, 30% PEG1500; tetramer

Protein | stoichiometry N
SAMHD1 (113-626) H206R/D207N/R366C (domain or fragment, UniProt Q9Y3Z3 113-626, looked up, Crystallised with 4 mM dGTP; also called R366C (crystal construct); SAMHD1 HD/RN R366C) DTMKVINDPIHGHIELHPLLVRIIDTPQFQRLRYIKQLGGGYYVFPGASHNRFEHSLGVGYLAGCLVHALGEKQPELQISERDVLCVQIAGLCRNLGHGPFSHMFDGRFIPLARPEVKWTHEQGSVMMFEHLINSNGIKPVMEQYGLIPEEDICFIKEQIVGPLESPVEDSLWPYKGRPENKSFLYEIVSNKRNGIDVDKWDYFARDCHHLGIQNNFDYKRFIKFARVCEVDNELRICARDKEVGNLYDMFHTCNSLHRRAYQHKVGNIIDTMITDAFLKADDYIEITGAGGKKYRISTAIDDMEAYTKLTDNIFLEILYSTDPKLKDAREILKQIEYRNLFKYVGETQPTGQIKIKREDYESLPKEVASAKPKVLLDVKLKAEDFIVDVINMDYGMQEKNPIDHVSFYCKTAPNRAIRITKNQVSQLLPEKFAEQLIRVYCKKVDRKSLYAARQYFVQWCADRNFTKPQDGDVIAPLITPQKKEWNDSTSVQNPTRLREASKSRVQLFKDDPM | 4
SAMHD1 (113-626) H206R/D207N/R366H (domain or fragment, UniProt Q9Y3Z3 113-626, looked up, Crystallised with 4 mM dGTP; also called R366H (crystal construct); SAMHD1 HD/RN R366H) DTMKVINDPIHGHIELHPLLVRIIDTPQFQRLRYIKQLGGGYYVFPGASHNRFEHSLGVGYLAGCLVHALGEKQPELQISERDVLCVQIAGLCRNLGHGPFSHMFDGRFIPLARPEVKWTHEQGSVMMFEHLINSNGIKPVMEQYGLIPEEDICFIKEQIVGPLESPVEDSLWPYKGRPENKSFLYEIVSNKRNGIDVDKWDYFARDCHHLGIQNNFDYKRFIKFARVCEVDNELRICARDKEVGNLYDMFHTHNSLHRRAYQHKVGNIIDTMITDAFLKADDYIEITGAGGKKYRISTAIDDMEAYTKLTDNIFLEILYSTDPKLKDAREILKQIEYRNLFKYVGETQPTGQIKIKREDYESLPKEVASAKPKVLLDVKLKAEDFIVDVINMDYGMQEKNPIDHVSFYCKTAPNRAIRITKNQVSQLLPEKFAEQLIRVYCKKVDRKSLYAARQYFVQWCADRNFTKPQDGDVIAPLITPQKKEWNDSTSVQNPTRLREASKSRVQLFKDDPM | 4
